The results in this text go back to paper PMC7373187.

Test [1] deals with His6-GapR_(1–69), truncated GapR lacking the entire helix H3 (C. crescentus). Description: cross-linking; 400 mM EDC plus 100 mM NHS, 2 h, room temperature; proteins at 50 μM (monomer); 1 M NaCl and 1 mM EDTA (no DNA bound); SDS-PAGE, silver stained.
For test [2] the target is unchanged. Put plainly: SEC; Superdex 75 10/300 GL, 1 M NaCl and 1 mM EDTA, proteins separated from copurified DNA; His6-GapR1-89 at 50 μM, His6-GapR1-69 at 125 μM, His6-GapR1-76 at 100 μM (monomer). In general terms: In gel filtration, larger molecules generally elute earlier.
Test [3] deals with His6-GapR_(1–76), truncated GapR lacking the hydrophobic patch of helix H3 (C. crescentus). Description: cross-linking; 400 mM EDC plus 100 mM NHS, 2 h, room temperature; proteins at 50 μM (monomer); 1 M NaCl and 1 mM EDTA (no DNA bound); SDS-PAGE, silver stained.
The target is the same in test [4]. Description: SEC; Superdex 75 10/300 GL, 1 M NaCl and 1 mM EDTA, proteins separated from copurified DNA; His6-GapR1-89 at 50 μM, His6-GapR1-69 at 125 μM, His6-GapR1-76 at 100 μM (monomer).
Test [5] concerns the target His6-GapR_(1–89), full-length wild-type GapR of Caulobacter crescentus (C. crescentus). Description: cross-linking; 400 mM EDC plus 100 mM NHS, 2 h, room temperature; proteins at 50 μM (monomer); 1 M NaCl and 1 mM EDTA (no DNA bound); SDS-PAGE, silver stained.
Test [6] has the same target. Put plainly: SEC; Superdex 75 10/300 GL, 1 M NaCl and 1 mM EDTA, proteins separated from copurified DNA; His6-GapR1-89 at 50 μM, His6-GapR1-69 at 125 μM, His6-GapR1-76 at 100 μM (monomer).
Test [7] shares this target. Description: cross-linking; 400 mM EDC plus 100 mM NHS, 2 h, room temperature; proteins at 50 μM (monomer); 150 mM NaCl, 10% glycerol, 20 mM HEPES (for tagged and untagged GapR1-89 also 50 mM sodium phosphate); SDS-PAGE, silver stained.
Test [8] has as its target untagged GapR_(1–89) (C. crescentus). The description is as above.

For the substance “His6-GapR_(1–69), truncated GapR lacking the entire helix H3 (domain or fragment)”, the stoichiometry N in test [1] and in test [2] was 2 throughout.

With “His6-GapR_(1–76), truncated GapR lacking the hydrophobic patch of helix H3 (domain or fragment)”, the stoichiometry N in test [3] and in test [4] was 2 throughout.

As for “His6-GapR_(1–89), full-length wild-type GapR of Caulobacter crescentus (natural protein)”, the stoichiometry N in test [5], in test [6] and in test [7] was 4 each time.

With untagged GapR_(1–89) (natural protein), the stoichiometry N in test [8] turned out to be 4.

Broadly, the stoichiometry N is the number of molecules, sites or subunits per partner or assembly.
